Publication PMC5548745, “Agonist-induced dimer dissociation as a macromolecular step in G protein-coupled receptor signaling” (Nature Communications, 2017)

Tests used:
FZD6–FZD6 dimer = assay: dynamic FCCS of V5-FZD6-mCherry/FZD6-GFP; type: cell-based, human; details: HEK293
Experimental: HEK293 cells were grown over-night in Lab-Tek eight-well chamber-glass bottom slides (Nunc, Thermo Scientific, Langensbold, Germany) coated with matrigel. Data were acquired in 10 s intervals. Collection intervals containing abnormal fluorescence peaks (presumably resulting from aggregates or ROIs where the overall fluorescence was decaying, putatively due to membrane movements) were discarded from the overall analysis. The total included measurements time ranged from 20 to 80 s per cell. Measurements were only undertaken on cells where the fluorescence was well localized to the cell surface membrane, as judged by visual inspection in the wide-field and confocal mode. Autofluorescence, as well as fluorescence from both GFP and mCherry in the intracellular region was negligible. The number of fluorescent receptors assessed in each experiment varied from 10–1000 receptors per µm^2 in each HEK293 cell.
Dynamic FCCS measurements of WNT-dependent dissociation and re-association of FZD (Fig. 5c–e) were performed on an FCS/FCCS-equipped Zeiss 780 confocal microscope (Zeiss, Jena, Germany). The instrument details were the same as those of the Confocor 3 described above, with the exception that 561 nm excitation was used for excitation of mCherry, that GFP emission was detected from 500 to 550 nm, and that mCherry emission was detected from 600 to 690 nm. Experiments on cells were performed as described above, with each measurement point consisting of 3–6 measurements of 10 s each. […]
Assuming that M is FZD6-GFP (green) and N is FZD6-mCherry (red) and that all FZD6 form dimers, then the probability of finding a green–red FZD6 dimer is pgr=2×M×N/(M+N)(M+N-1)≈2×M×N/M+N^2=(2cgg+cgr)(2crr+cgr)/2cgg+cgr+crr^2 , where c gg, c gr, and c rr are the corresponding concentrations of the only green FZD6 dimers, the red and green FZD6 dimers and the only red FZD6 dimers. […] From the experiments, we determine the concentrations for c gg, c gr and c rr and compare the concentrations c gr with the c′gr for each cell to get an estimation of how close the model is to experimental data: cgr/c′gr=2cgr×(cgg+cgr+crr)/((2cgg+cgr)(2crr+cgr)) Analysis of the dynamic FCCS measurements of WNT-dependent dissociation and re-association of FZD6: Auto-correlation and cross-correlation curves were analyzed as described above and the amplitudes G g(0)−1, G r(0)−1, and G cc(0)−1 from each of the more than 300 measurements of 10 s duration were estimated by fitting to theoretical models. […]
With the settings described above for detection of emission, the crosstalk from the GFP channel to the mCherry channel, defined as the intensity detected in the mCherry channel divided by the intensity detected in the GFP channel, I r/I g, for a cell expressing only FZD-GFP, was 0.051 or 5.1 %. […]

[1] = system: ERK1/2 phosphorylation in MLE-12 cells; assay: P-ERK1/2 immunoblot, WNT-5A stimulated MLE-12 cells; type: cell-based, mouse; details: 300 ng ml^−1 WNT-5A
Experimental: MLE-12 or HEK293 cells (ATCC) were plated in a 24- or 48-well plate at a density of 100,000 or 50,000 cells/well, respectively. After 24 h, cells were transfected using Lipofectamine 2000 according to the manufacturer’s instructions. Cells were stimulated (24 h post-transfection) with 300 ng ml^−1 recombinant carrier-free WNT-5A (CF WNT-5A; R&D Systems). Stimulation was stopped by the addition of lysis buffer (1% NP-40, 150 mM NaCl, 50 mM Tris/HCl pH 8). Lysates were sonicated and analyzed by 7.5 or 10% Mini-PROTEAN TGX precast polyacrylamide gels (Bio-Rad) and transferred to PVDF membranes using the Trans-Blot Turbo system (Bio-Rad). […] Proteins were detected with horseradish peroxidase-conjugated secondary antibodies (goat anti-rabbit and goat anti-mouse (Pierce)) and Clarity Western ECL Blotting Substrate (Bio-Rad). […]
Supplementary Figure 6: FZD6 in mouse lung epithelial cells, related to Figure 6. […] The bar graph depicts expression levels of fzd1-10 mRNA in mouse lung epithelial cells (MLE-12) measured by quantitative PCR. […] Primer efficiency has been quantified previously (Halleskog et al., 2012). (b) MLE-12 wt and CRISPR/Cas9 FZD6+/- cells were seeded in a 24-well plate and counted after trypsinization at the indicated time points. Cell proliferation was quantified by cell counting in a Bürker chamber. […]

[2] = representative cell, G cc normalized to green auto-correlation amplitude, WNT-5A

B1: WNT-5A: recombinant carrier-free WNT-5A (R&D Systems), agonist for FZDs (protein, UniProt P41221 62-380, looked up)
Protein Wnt-5a: IIGAQPLCSQLAGLSQGQKKLCHLYQDHMQYIGEGAKTGIKECQYQFRHRRWNCSTVDNTSVFGRVMQIGSRETAFTYAVSAAGVVNAMSRACREGELSTCGCSRAARPKDLPRDWLWGGCGDNIDYGYRFAKEFVDARERERIHAKGSYESARILMNLHNNEAGRRTVYNLADVACKCHGVSGSCSLKTCWLQLADFRKVGDALKEKYDSAAAMRLNSRGKLVQVNSRFNSPTTQDLVYIDPSPDYCVRNESTGSLGTQGRLCNKTSEGMDGCELMCCGRGYDQFKTVQTERCHCKFHWCCYVKCKKCTEIVDQFVCK
FZD6–FZD6 interaction upon stimulation (FCCS) (FZD6–FZD6 dimer; WNT-5A 300 ng ml^−1): a transient decrease in FZD6–FZD6 interaction | red molecules also green at maximal dimer dissociation (FZD6–FZD6 dimer; [2]): 6% | red molecules also green upon dimer re-association (FZD6–FZD6 dimer; [2]): 21% | phosphorylation of ERK1/2 on WNT-5A stimulation [1]: time-dependent, partially pertussis toxin-sensitive phosphorylation of ERK1/2 | time of maximal increase in P-ERK1/2 ([1]; 0–20 min, three independent experiments): 5 min
